The labels stand for the following.
T1: Recombinant NT antigen (N-terminal pro-brain natriuretic peptide, NT-proBNP) (human, UniProt P16860 27-102)
T1 construct: domain: N-terminal pro-brain natriuretic peptide (NT-proBNP); also called recombinant NT protein; N-terminal pro-B-type natriuretic peptide
T1 sequence (looked up): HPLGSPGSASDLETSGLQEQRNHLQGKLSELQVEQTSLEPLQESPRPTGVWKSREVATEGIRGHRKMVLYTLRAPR

B1: Mutation 1 (antibody, V domains shown)
VH: QVRLQESGPSQVKPAQTLSLTCAISGFSITTYYIDWVRHTPGKPPEWLAQMTKDGNAVHQPTIRSRLSITRDTSKSQVFLKLTGVTTEDTAVYYCVRGIIDWGPGLLVTVSS
VL: QAVLTQPSSVSRSLGQTVSITCSGSSDQVGFGDYVNWFQLIPGSAPKTLIFGATSRIRGVPDRFSGSRSGNTATLTINSLQAEDEADYYCGSPNSRGGYVFGSGTRLTVLS
notes: also called mutant 1 antibody
B2: WT 1-5 (antibody)
heavy: QVRLQESGPSQVKPAQTLSLTCAISGPSLTTYYLDWVRHTPGKPPEWLAQMTKDANAVHNPTVRSRLSITRDTSKSQVFLKLTGVTTEDTAVYYCVKGLIDFGPGLLVTVSSASTTPPKVYPLTSCCGDTSSSIVTLGCLVSSYMPEPVTVTWNSGALTSGVHTFPAILQSSGLYSLSSVVTVPASTSGAQTFICNVAHPASSTKVDKRVEPGCPDPCKHCRCPPPELPGGPSVFIFPPKPKDTLTISGTPEVTCVVVDVGQDDPEVQFSWFVDNVEVRTARTKPREEQFNSTFRVVSALPIQHQDWTGGKEFKCKVHNEGLPAPIVRTISRTKGQAREPQVYVLAPPQEELSKSTLSVTCLVTGFYPDYIAVEWQKNGQPESEDKYGTTTSQLDADGSYFLYSRLRVDKNSWQEGDTYACVVMHEALHNHYTQKSISKPPGK
light: QAVLTQPSSVSRSLGQTVSITCSGSSDQVGPGDYLNWFQLIPGSAPKTLIFAASSRIRGVPDRFSGSRSGNTATLTINSLQAEDEADYYCGSANSRNYVWGSGTRLTVLSQPKSAPSVTLFPPSKEELDTNKATVVCLISDFYPGSVNVVWKADGSTINQNVKTTQASKQSNSKYAASSYLTLTGSEWKSKSSYTCEVTHEGSTVTKTVKPSECS
B3: Mutation 1-1 (antibody)
heavy: QVRLQESGPSQVKPAQTLSLTCAISGFSITTYYLDWVRHTPGKPPEWLAQMTKDGNAVHNPTIRSRLSITRDTSKSQVFLKLTGVTTEDTAVYYCVRGIIDFGPGLLVTVSSASTTPPKVYPLTSCCGDTSSSIVTLGCLVSSYMPEPVTVTWNSGALTSGVHTFPAILQSSGLYSLSSVVTVPASTSGAQTFICNVAHPASSTKVDKRVEPGCPDPCKHCRCPPPELPGGPSVFIFPPKPKDTLTISGTPEVTCVVVDVGQDDPEVQFSWFVDNVEVRTARTKPREEQFNSTFRVVSALPIQHQDWTGGKEFKCKVHNEGLPAPIVRTISRTKGQAREPQVYVLAPPQEELSKSTLSVTCLVTGFYPDYIAVEWQKNGQPESEDKYGTTTSQLDADGSYFLYSRLRVDKNSWQEGDTYACVVMHEALHNHYTQKSISKPPGK
light: QAVLTQPSSVSRSLGQTVSITCSGSSDQVGFGDYLNWFQLIPGSAPKTLIFGATSRLRGVPDRFSGSRSGNTATLTINSLQAEDEADYYCGSPNSRNYVFGSGTRLTVLSQPKSAPSVTLFPPSKEELDTNKATVVCLISDFYPGSVNVVWKADGSTINQNVKTTQASKQSNSKYAASSYLTLTGSEWKSKSSYTCEVTHEGSTVTKTVKPSECS
B4: Mutation 1-13 (antibody)
heavy: QVRLQESGPSQVKPAQTLSLTCAISGFSLTTYYLDWVRHTPGKPPEWLAQMTKDGNAVHNPTIRSRLSITRDTSKSQVFLKLTGVTTEDTAVYYCVRGIIDFGPGLLVTVSSASTTPPKVYPLTSCCGDTSSSIVTLGCLVSSYMPEPVTVTWNSGALTSGVHTFPAILQSSGLYSLSSVVTVPASTSGAQTFICNVAHPASSTKVDKRVEPGCPDPCKHCRCPPPELPGGPSVFIFPPKPKDTLTISGTPEVTCVVVDVGQDDPEVQFSWFVDNVEVRTARTKPREEQFNSTFRVVSALPIQHQDWTGGKEFKCKVHNEGLPAPIVRTISRTKGQAREPQVYVLAPPQEELSKSTLSVTCLVTGFYPDYIAVEWQKNGQPESEDKYGTTTSQLDADGSYFLYSRLRVDKNSWQEGDTYACVVMHEALHNHYTQKSISKPPGK
light: QAVLTQPSSVSRSLGQTVSITCSGSSDQVGFGDYLNWFQLIPGSAPKTLIFGAYSRLRGVPDRFSGSRSGNTATLTINSLQAEDEADYYCGSPNSRNYVFGSGTRLTVLSQPKSAPSVTLFPPSKEELDTNKATVVCLISDFYPGSVNVVWKADGSTINQNVKTTQASKQSNSKYAASSYLTLTGSEWKSKSSYTCEVTHEGSTVTKTVKPSECS
B5: Mutation 1-10 (antibody, V domains shown)
VH: QVRLQESGPSQVKPAQTLSLTCAISGFSITTYYLDWVRHTPGKPPEWLAQMTKDGNAVHNPTIRSRLSITRDTSKSQVFLKLTGVTTEDTAVYYCVRGVIDWGPGLLVTVSS
VL: QAVLTQPSSVSRSLGQTVSITCSGSSDQVGFGDYLNWFQLIPGSAPKTLIFGASSRLRGVPDRFSGSRSGNTATLTINSLQAEDEADYYCGSANSRNYVFGSGTRLTVLS
B6: Mutation 1-7 (antibody)
heavy: QVRLQESGPSQVKPAQTLSLTCAISGFSVTTYYLDWVRHTPGKPPEWLAQMTKDGNAVHQPTVRSRLSITRDTSKSQVFLKLTGVTTEDTAVYYCVRGIIDFGPGLLVTVSSASTTPPKVYPLTSCCGDTSSSIVTLGCLVSSYMPEPVTVTWNSGALTSGVHTFPAILQSSGLYSLSSVVTVPASTSGAQTFICNVAHPASSTKVDKRVEPGCPDPCKHCRCPPPELPGGPSVFIFPPKPKDTLTISGTPEVTCVVVDVGQDDPEVQFSWFVDNVEVRTARTKPREEQFNSTFRVVSALPIQHQDWTGGKEFKCKVHNEGLPAPIVRTISRTKGQAREPQVYVLAPPQEELSKSTLSVTCLVTGFYPDYIAVEWQKNGQPESEDKYGTTTSQLDADGSYFLYSRLRVDKNSWQEGDTYACVVMHEALHNHYTQKSISKPPGK
light: QAVLTQPSSVSRSLGQTVSITCSGSSDNVGFGDYLNWFQLIPGSAPKTLIFGASSRLRGVPDRFSGSRSGNTATLTINSLQAEDEADYYCGSGNSRNYVFGSGTRLTVLSQPKSAPSVTLFPPSKEELDTNKATVVCLISDFYPGSVNVVWKADGSTINQNVKTTQASKQSNSKYAASSYLTLTGSEWKSKSSYTCEVTHEGSTVTKTVKPSECS
B7: Mutation 1-3 (antibody)
heavy: QVRLQESGPSQVKPAQTLSLTCAISGFSLTTYYIDWVRHTPGKPPEWLAQMTKDGNAVHNPTLRSRLSITRDTSKSQVFLKLTGVTTEDTAVYYCVRGLIDFGPGLLVTVSSASTTPPKVYPLTSCCGDTSSSIVTLGCLVSSYMPEPVTVTWNSGALTSGVHTFPAILQSSGLYSLSSVVTVPASTSGAQTFICNVAHPASSTKVDKRVEPGCPDPCKHCRCPPPELPGGPSVFIFPPKPKDTLTISGTPEVTCVVVDVGQDDPEVQFSWFVDNVEVRTARTKPREEQFNSTFRVVSALPIQHQDWTGGKEFKCKVHNEGLPAPIVRTISRTKGQAREPQVYVLAPPQEELSKSTLSVTCLVTGFYPDYIAVEWQKNGQPESEDKYGTTTSQLDADGSYFLYSRLRVDKNSWQEGDTYACVVMHEALHNHYTQKSISKPPGK
light: QAVLTQPSSVSRSLGQTVSITCSGSSDNVGFGDYVNWFQLIPGSAPKTLIFGAYSRIRGVPDRFSGSRSGNTATLTINSLQAEDEADYYCGSANSRNYVFGSGTRLTVLSQPKSAPSVTLFPPSKEELDTNKATVVCLISDFYPGSVNVVWKADGSTINQNVKTTQASKQSNSKYAASSYLTLTGSEWKSKSSYTCEVTHEGSTVTKTVKPSECS

For this assay, the target named is T1, Recombinant NT antigen (N-terminal …). Nature of the assay: indirect ELISA, KD calculated from half-max OD at 4 coating concentrations. As to the method:
Recombinant NT antigen was diluted with coating solution to 1 μg/ml a microplate overnight at 4° C.; which was washed twice with washing solution and patted dry on the next day; with addition of blocking solution (20% BSA+80% PBS) at 120 μL per well at 37° C. for 1 h and patted dry; added the diluted NT monoclonal antibody, 100 μL/well at 37° C. for 30 min (partial supernatant for 1 h); washed 5 times with washing solution and patted dry; added rabbit anti-goat IgG-HRP […] per well at 37° C. for 30 min; washed 5 times with washing solution and patted dry; added color developing solution A (50 μL/well), added color developing solution B (50 μL/well) for 10 min; added stop solution, 50 μL/well; followed by reading the OD value at 450 nm (reference 630 nm) on the microplate reader.
Data from the enzyme immunoassay indirect method were analyzed in the same way as the activity identification, with four gradients of 3 μg/ml, 1.5 μg/ml, 0.75 μg/ml and 0.375 μg/ml for coating; the antibody was diluted from 1000 ng/ml by 2 times to 0.977 ng/ml for loading sample. OD values corresponding to different antibody concentrations at different coating concentrations were obtained. Under the same coating concentration, data were plotted logarithmically with the antibody concentration as the abscissa and the OD value as the ordinate.
Consider B1, for which the equilibrium dissociation constant (Kd) is 1.73 nM.
B2: the equilibrium dissociation constant (Kd) was 22.6 nM.
Under B3 stands 2.51 nM.
As to B4, the Kd was 2.09 nM.
For the molecule B5, the Kd was 3.2 nM.
In the case of B6 it was 1.53 nM; in that of B7, 1.52 nM.
